What follows are sequences tested on Escherichia coli TOP10 (assay: shrunken log2 fold change of peptide-encoding DNA abundance (4.5 h post-induction vs induction); higher = less antimicrobial activity (less host growth inhibition)). Conditions: time post-induction: 4.5 h; library: site-saturation at positions 5, 18, 19, 20.
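Further: peptides expressed intracellularly from a pBAD plasmid library in pooled LB shake-flask culture, induced with 0.3% L-arabinose, DNA abundance read by NGS, three biological replicates, DESeq2 with apeglm shrinkage.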

Sequence | shrunken log2 fold change
RRIRARPPRLPRPRPRPEWGPRP | 1.06
RRIRVRPPRLPRPRPRPVDEPRP | 0.144
RRIRNRPPRLPRPRPRPTSLPRP | -0.0597
RRIRARPPRLPRPRPRPDEQPRP | 0.0992
RRIRARPPRLPRPRPRPCNEPRP | -0.0554
RRIRLRPPRLPRPRPRPLNVPRP | 0.0831
RRIRLRPPRLPRPRPRPDPDPRP | -0.0677
RRIRTRPPRLPRPRPRPCVPPRP | -0.109
RRIRSRPPRLPRPRPRPMRWPRP | 0.664
RRIRERPPRLPRPRPRPCCAPRP | 0.112
RRIRFRPPRLPRPRPRPDIVPRP | -0.0567
RRIRHRPPRLPRPRPRPGQGPRP | -0.104
RRIRHRPPRLPRPRPRPVTQPRP | -0.296
RRIRNRPPRLPRPRPRPNCCPRP | -0.124
RRIRERPPRLPRPRPRPSSFPRP | -0.426
RRIRMRPPRLPRPRPRPWYFPRP | -0.282
RRIRPRPPRLPRPRPRPFGKPRP | -0.164
RRIRHRPPRLPRPRPRPFYPPRP | -0.623
RRIRMRPPRLPRPRPRPDGPPRP | 0.0285
RRIRPRPPRLPRPRPRPMLTPRP | -0.333
RRIRWRPPRLPRPRPRPNFDPRP | -0.0228
RRIRNRPPRLPRPRPRPDIWPRP | -0.394
RRIRCRPPRLPRPRPRPEGPPRP | 0.261
RRIRVRPPRLPRPRPRPQSWPRP | 0.256
RRIRERPPRLPRPRPRPTEGPRP | 0.0858

Sequence | shrunken log2 fold change
RRIRMRPPRLPRPRPRPCNWPRP | -0.00208
RRIRCRPPRLPRPRPRPWKCPRP | -0.0193
RRIRARPPRLPRPRPRPLVNPRP | 0.0552
RRIRARPPRLPRPRPRPAKWPRP | 0.273
RRIRFRPPRLPRPRPRPVFGPRP | -0.17
RRIRLRPPRLPRPRPRPDYMPRP | -0.548
RRIRTRPPRLPRPRPRPNRWPRP | -0.0997
RRIRARPPRLPRPRPRPGHWPRP | 0.628
RRIRNRPPRLPRPRPRPFDDPRP | -0.00192
RRIRYRPPRLPRPRPRPQTYPRP | -0.755
RRIRIRPPRLPRPRPRPCRFPRP | -0.0104
RRIRQRPPRLPRPRPRPNPWPRP | 0.0932
RRIRARPPRLPRPRPRPTVCPRP | 0.505
RRIRYRPPRLPRPRPRPPIAPRP | 0.00572
RRIRMRPPRLPRPRPRPKTEPRP | 0.155
RRIRMRPPRLPRPRPRPPEMPRP | 0.329
RRIRNRPPRLPRPRPRPYDNPRP | -0.897
RRIRPRPPRLPRPRPRPRSIPRP | -0.149
RRIRHRPPRLPRPRPRPYRSPRP | 0.0215
RRIRLRPPRLPRPRPRPVKHPRP | -0.131
RRIRERPPRLPRPRPRPTYWPRP | -0.219
RRIRTRPPRLPRPRPRPWAEPRP | -0.0837
RRIRSRPPRLPRPRPRPWEMPRP | -0.00146
RRIRSRPPRLPRPRPRPAMSPRP | -0.0932
RRIRHRPPRLPRPRPRPQLAPRP | 0.0733

Sequence | shrunken log2 fold change
RRIRMRPPRLPRPRPRPCQYPRP | 0.0396
RRIRSRPPRLPRPRPRPHMLPRP | -0.104
RRIRLRPPRLPRPRPRPHKIPRP | -0.0592
RRIRYRPPRLPRPRPRPTRTPRP | -0.0719
RRIRYRPPRLPRPRPRPKWCPRP | -0.00875
RRIRWRPPRLPRPRPRPNVVPRP | -0.144
RRIRVRPPRLPRPRPRPHMGPRP | -0.302
RRIRPRPPRLPRPRPRPLVLPRP | 0.0114
RRIRSRPPRLPRPRPRPECPPRP | -0.0934
RRIRDRPPRLPRPRPRPLTLPRP | -0.0246
RRIRHRPPRLPRPRPRPTRKPRP | 0.00421
RRIRNRPPRLPRPRPRPIWWPRP | -0.141
RRIRPRPPRLPRPRPRPIHMPRP | -0.23
RRIRQRPPRLPRPRPRPYNAPRP | -0.0247
RRIRQRPPRLPRPRPRPYTTPRP | -0.0148
RRIRIRPPRLPRPRPRPWSKPRP | -0.0876
RRIRARPPRLPRPRPRPSTSPRP | -0.322
RRIRLRPPRLPRPRPRPSRSPRP | -0.0638
RRIRPRPPRLPRPRPRPMGLPRP | 0.0513
RRIRWRPPRLPRPRPRPPLAPRP | 1.63
RRIRIRPPRLPRPRPRPEMRPRP | -0.0182
RRIRRRPPRLPRPRPRPRQYPRP | -0.191
RRIRYRPPRLPRPRPRPEWAPRP | 0.193
RRIRYRPPRLPRPRPRPTWVPRP | 0.18
RRIRDRPPRLPRPRPRPFKQPRP | -0.235

Sequence | shrunken log2 fold change
RRIRQRPPRLPRPRPRPFPSPRP | -0.0654
RRIRWRPPRLPRPRPRPEEQPRP | 0.149
RRIRMRPPRLPRPRPRPAAKPRP | 1.26
RRIRARPPRLPRPRPRPVGNPRP | 0.0787
RRIRNRPPRLPRPRPRPKYNPRP | -0.901
RRIRWRPPRLPRPRPRPYNQPRP | -0.807
RRIRERPPRLPRPRPRPVMIPRP | -0.22
RRIRERPPRLPRPRPRPVCNPRP | -0.12
RRIRSRPPRLPRPRPRPGDSPRP | -0.0926
RRIRERPPRLPRPRPRPTCIPRP | -0.23
RRIRPRPPRLPRPRPRPAAYPRP | 0.0551
RRIRYRPPRLPRPRPRPHMAPRP | -0.155
RRIRQRPPRLPRPRPRPLMHPRP | -0.00724
RRIRGRPPRLPRPRPRPHFDPRP | 0.469
RRIRCRPPRLPRPRPRPLLNPRP | -0.39
RRIRIRPPRLPRPRPRPARPPRP | 0.474
RRIRDRPPRLPRPRPRPDFKPRP | 0.00362
RRIRCRPPRLPRPRPRPRVSPRP | 0.064
RRIRSRPPRLPRPRPRPRSYPRP | -0.066
RRIRMRPPRLPRPRPRPHKAPRP | 0.000331
RRIRMRPPRLPRPRPRPVMDPRP | 0.025
RRIRRRPPRLPRPRPRPAWSPRP | 0.321
RRIRHRPPRLPRPRPRPAPFPRP | -0.257
RRIRMRPPRLPRPRPRPWVMPRP | -0.022
RRIRCRPPRLPRPRPRPKRDPRP | 5.21

Sequence | shrunken log2 fold change
RRIRARPPRLPRPRPRPTEMPRP | -0.00782
RRIRYRPPRLPRPRPRPALKPRP | 0.0554
RRIRFRPPRLPRPRPRPDSYPRP | -0.236
RRIRERPPRLPRPRPRPWKKPRP | -0.0959
RRIRERPPRLPRPRPRPICKPRP | -0.215
RRIRPRPPRLPRPRPRPPNWPRP | 0.534
RRIRYRPPRLPRPRPRPTYNPRP | -1.32
RRIRQRPPRLPRPRPRPILPPRP | 0.0747
RRIRARPPRLPRPRPRPMSDPRP | 0.56
RRIRPRPPRLPRPRPRPLQAPRP | 0.496
RRIRGRPPRLPRPRPRPMVSPRP | 0.313
RRIRCRPPRLPRPRPRPPWSPRP | 0.175
RRIRCRPPRLPRPRPRPFDMPRP | -0.309
RRIRTRPPRLPRPRPRPFCPPRP | -0.279
RRIRCRPPRLPRPRPRPGAVPRP | 0.202
RRIRIRPPRLPRPRPRPCALPRP | 0.00316
RRIRNRPPRLPRPRPRPTWPPRP | 0.77
RRIRERPPRLPRPRPRPEQRPRP | 0.32
RRIRNRPPRLPRPRPRPLGQPRP | 0.0394
RRIRFRPPRLPRPRPRPTQWPRP | 0.267
RRIRNRPPRLPRPRPRPPNLPRP | -0.166
RRIRDRPPRLPRPRPRPGPIPRP | -0.0864
RRIRKRPPRLPRPRPRPFEQPRP | 0.0483
RRIRWRPPRLPRPRPRPWKFPRP | 0.0588
RRIRQRPPRLPRPRPRPTFAPRP | 0.209

Sequence | shrunken log2 fold change
RRIRYRPPRLPRPRPRPKKLPRP | -0.647
RRIRVRPPRLPRPRPRPEAHPRP | 0.0146
RRIRQRPPRLPRPRPRPDDWPRP | 0.0952
RRIRARPPRLPRPRPRPIFCPRP | 0.445
RRIRGRPPRLPRPRPRPTTKPRP | 1
RRIRMRPPRLPRPRPRPKEFPRP | 0.103
RRIRMRPPRLPRPRPRPQGYPRP | 0.0234
RRIRWRPPRLPRPRPRPDPLPRP | 0.221
RRIRWRPPRLPRPRPRPLQSPRP | 0.153
RRIRCRPPRLPRPRPRPKDQPRP | -0.0507
RRIRGRPPRLPRPRPRPHVIPRP | -0.191
RRIRSRPPRLPRPRPRPWNPPRP | -0.00281
RRIRKRPPRLPRPRPRPIYLPRP | -0.305
RRIRFRPPRLPRPRPRPRSSPRP | 0.12
RRIRERPPRLPRPRPRPYVNPRP | 0.0121
RRIRVRPPRLPRPRPRPRFRPRP | 0.193
RRIRKRPPRLPRPRPRPWQLPRP | -0.00277
RRIRPRPPRLPRPRPRPKAMPRP | 0.000243
RRIRNRPPRLPRPRPRPLWQPRP | -0.303
RRIRQRPPRLPRPRPRPPHAPRP | 0.322
RRIRARPPRLPRPRPRPVNVPRP | -0.169
RRIRTRPPRLPRPRPRPMHIPRP | -0.158
RRIRARPPRLPRPRPRPDLGPRP | 0.438
RRIRWRPPRLPRPRPRPIYVPRP | -0.0477
RRIRKRPPRLPRPRPRPEMCPRP | 1.1

From the supplement of paper PMC9112550, “Optimization of the antimicrobial peptide Bac7 by deep mutational scanning” (BMC Biology, 2022)
